We go through six molecules from patent publication US20160298117, “PEANUT-BINDING NUCLEIC ACID MOLECULE AND USE THEREOF” (NEC Solution Innovators, Ltd., published 2016).

T1: conarachin (undenatured) (Arachis hypogaea) (UniProt P43238)
T1 sequence: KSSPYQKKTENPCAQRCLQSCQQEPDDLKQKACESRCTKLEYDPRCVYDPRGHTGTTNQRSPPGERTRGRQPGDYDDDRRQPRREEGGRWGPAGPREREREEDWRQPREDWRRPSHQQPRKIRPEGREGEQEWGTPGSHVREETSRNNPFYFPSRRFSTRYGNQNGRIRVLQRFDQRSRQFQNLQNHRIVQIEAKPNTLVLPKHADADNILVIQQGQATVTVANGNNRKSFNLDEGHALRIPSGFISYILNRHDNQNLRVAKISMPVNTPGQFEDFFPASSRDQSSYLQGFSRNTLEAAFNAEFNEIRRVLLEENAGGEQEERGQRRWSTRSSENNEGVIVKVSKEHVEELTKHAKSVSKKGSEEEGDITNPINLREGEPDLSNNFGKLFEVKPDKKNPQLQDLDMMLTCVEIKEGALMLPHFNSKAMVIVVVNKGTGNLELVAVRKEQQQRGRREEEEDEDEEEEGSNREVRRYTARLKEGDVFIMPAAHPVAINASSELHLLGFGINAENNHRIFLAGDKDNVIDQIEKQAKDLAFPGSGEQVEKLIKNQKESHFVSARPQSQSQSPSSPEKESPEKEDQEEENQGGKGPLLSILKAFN

T2: conarachin (undenatured) (Arachis hypogaea, UniProt P43238 P43238:26-626)
T2 sequence: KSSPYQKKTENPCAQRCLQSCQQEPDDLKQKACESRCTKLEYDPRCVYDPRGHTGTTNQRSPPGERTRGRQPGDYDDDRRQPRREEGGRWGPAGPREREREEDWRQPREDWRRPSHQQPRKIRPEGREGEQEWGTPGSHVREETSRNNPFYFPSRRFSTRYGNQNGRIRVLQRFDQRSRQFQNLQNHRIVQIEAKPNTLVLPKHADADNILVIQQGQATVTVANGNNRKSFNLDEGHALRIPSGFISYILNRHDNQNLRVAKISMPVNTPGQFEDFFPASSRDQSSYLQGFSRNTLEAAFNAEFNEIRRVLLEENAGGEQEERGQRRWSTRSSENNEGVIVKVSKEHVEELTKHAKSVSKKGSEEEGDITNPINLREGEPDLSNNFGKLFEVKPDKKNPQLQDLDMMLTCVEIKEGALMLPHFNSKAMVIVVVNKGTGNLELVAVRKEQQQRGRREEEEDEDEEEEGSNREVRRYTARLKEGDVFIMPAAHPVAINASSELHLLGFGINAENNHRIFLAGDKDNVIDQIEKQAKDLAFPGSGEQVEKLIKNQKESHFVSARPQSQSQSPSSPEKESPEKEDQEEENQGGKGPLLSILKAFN

T3: Ara h1 (heat-denatured, purified from parboiled peanut) (Arachis hypogaea, UniProt P43238 P43238:26-626)
T3 sequence: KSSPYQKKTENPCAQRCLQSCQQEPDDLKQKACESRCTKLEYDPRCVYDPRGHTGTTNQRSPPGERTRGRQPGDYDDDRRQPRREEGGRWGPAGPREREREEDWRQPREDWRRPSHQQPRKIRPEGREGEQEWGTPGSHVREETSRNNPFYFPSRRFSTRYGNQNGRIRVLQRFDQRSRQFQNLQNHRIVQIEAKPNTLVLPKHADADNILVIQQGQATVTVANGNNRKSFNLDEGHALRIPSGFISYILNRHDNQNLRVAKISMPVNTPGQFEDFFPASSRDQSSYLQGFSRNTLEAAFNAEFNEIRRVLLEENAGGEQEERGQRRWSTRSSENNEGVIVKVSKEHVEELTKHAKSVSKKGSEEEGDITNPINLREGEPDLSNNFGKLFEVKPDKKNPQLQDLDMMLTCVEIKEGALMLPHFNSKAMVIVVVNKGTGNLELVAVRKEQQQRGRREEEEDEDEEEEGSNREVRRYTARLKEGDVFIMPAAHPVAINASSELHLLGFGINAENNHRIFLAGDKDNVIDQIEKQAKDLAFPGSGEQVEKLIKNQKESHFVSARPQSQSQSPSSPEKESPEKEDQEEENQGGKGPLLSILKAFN

B1: P_NES03 (CONA161R2R8m1s32) (ssDNA)
DNA: GTTCGTGGTGTGTTGTGTGTGATTCCAGGGACAAAAAAAAAAAAAAAAAAAAAAAA
B2: CT25_C3 (Pyrimidine rich) (ssDNA)
DNA: CTCTCTCTCTCTCCCTCTCTCTCTCAAAAAAAAAAAAAAAAAAAAAAAA
B3: PolydT20 (ssDNA)
DNA: TTTTTTTTTTTTTTTTTTTTAAAAAAAAAAAAAAAAAAAAAAAA
B4: P_NES04 (CONA171NNHR2R8m2s24) (ssDNA)
DNA: GTTTTCTAGGCCAATCTGATCAACAAAAAAAAAAAAAAAAAAAAAAAA
B5: P_NES01 (NAH1128R7Am2s19G) (ssDNA)
DNA: CCCGCCTGTATTCCTGTCCAAAAAAAAAAAAAAAAAAAAAAAA

One series has as its target T1, conarachin (undenatured) (Arachis hypogaea). Description: SPR. Particulars: all T replaced by 5-tryptaminocarbonyl-dU (TrpdU); printed as P_M_NES01 in table; same SPR buffer.
The Kd is the equilibrium constant for the complex coming apart. Higher therefore signals weaker binding. Molecule “GGATTCCGTGCCGTGCTAAAGGCCTCCCCGTTTATAGGCAGGTATCCGGCAGACTACTGGGCTTGCGACAAATGAAAAAAAAAAAAAAAAAAAAAAAA [P_NES_M01 (CONA170TEDAR2R8m1)]” had a Kd of 0.0388 nM.

The next series deals with beta-conglycinin (undenatured) (Glycine max, UniProt P0DO16;P11827;P25974 P0DO16:63-605,P11827:63-621,P25974:24-439). The experiment in a line: SPR; little binding, 18.75-300 nM. The conditions noted are these: tags: Sigma C5868-5GM. The procedure: (§1) First, as a sensor chip designed specifically for the ProteON, a streptavidin-immobilized chip (trade name: ProteOn NLC Sensor Chip, BioRad) was set in the ProteON XPR36. Biotinylated poly(dT) at 5 μmol/L was injected to a flow cell of the sensor chip using ultrapure water (DDW), and the binding was allowed to proceed until the signal intensity (RU: Resonance Unit) reached about 900 RU. The biotinylated poly(dT) was prepared by biotinylating the 5′ end of 24-mer deoxythymidine. Then, the poly(dA)-added aptamer at 1 μmol/L was injected to the flow cell of the chip using an SPR buffer at a flow rate of 25 μL/min for 80 seconds, and the binding was allowed to proceed until the signal intensity reached about 800 RU. […] Subsequently, the sample was injected using the SPR buffer at a flow rate of 50 μL/min for 120 seconds, followed by washing performed by flowing the SPR buffer under the same conditions. Signal intensity measurement was performed concurrently with the injection of the sample and the washing with the SPR buffer.
beta-conglycinin (undenatured), sequence (P0DO16 63-605, chain 1 of 3): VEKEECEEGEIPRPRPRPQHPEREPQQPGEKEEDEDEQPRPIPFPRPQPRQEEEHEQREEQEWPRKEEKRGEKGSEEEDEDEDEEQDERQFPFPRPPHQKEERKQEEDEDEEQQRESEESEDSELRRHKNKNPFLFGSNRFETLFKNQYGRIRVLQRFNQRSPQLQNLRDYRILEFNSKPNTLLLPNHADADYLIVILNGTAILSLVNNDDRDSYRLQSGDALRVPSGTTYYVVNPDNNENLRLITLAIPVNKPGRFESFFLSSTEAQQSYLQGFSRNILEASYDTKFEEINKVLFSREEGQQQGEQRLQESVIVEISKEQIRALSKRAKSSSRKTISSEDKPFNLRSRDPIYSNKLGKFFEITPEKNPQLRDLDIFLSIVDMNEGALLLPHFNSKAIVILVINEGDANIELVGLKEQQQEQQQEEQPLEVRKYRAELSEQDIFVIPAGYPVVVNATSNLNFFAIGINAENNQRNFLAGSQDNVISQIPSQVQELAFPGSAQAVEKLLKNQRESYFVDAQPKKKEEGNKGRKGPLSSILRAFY
beta-conglycinin (undenatured), sequence (P11827 63-621, chain 2 of 3): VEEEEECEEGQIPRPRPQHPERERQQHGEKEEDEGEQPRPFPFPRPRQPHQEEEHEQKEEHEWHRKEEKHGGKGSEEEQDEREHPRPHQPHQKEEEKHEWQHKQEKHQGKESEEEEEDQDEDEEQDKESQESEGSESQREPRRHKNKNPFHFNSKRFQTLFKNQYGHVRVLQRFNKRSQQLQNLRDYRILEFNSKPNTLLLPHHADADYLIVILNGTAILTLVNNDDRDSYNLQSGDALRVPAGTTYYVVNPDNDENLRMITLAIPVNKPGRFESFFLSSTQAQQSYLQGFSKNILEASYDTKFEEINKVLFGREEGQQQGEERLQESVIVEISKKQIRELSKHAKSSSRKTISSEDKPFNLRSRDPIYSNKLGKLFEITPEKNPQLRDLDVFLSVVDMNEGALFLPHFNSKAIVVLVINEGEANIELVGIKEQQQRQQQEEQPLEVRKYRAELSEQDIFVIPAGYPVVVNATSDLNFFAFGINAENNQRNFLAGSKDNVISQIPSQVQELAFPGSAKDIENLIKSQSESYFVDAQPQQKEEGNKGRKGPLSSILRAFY
beta-conglycinin (undenatured), sequence (P25974 24-439, chain 3 of 3): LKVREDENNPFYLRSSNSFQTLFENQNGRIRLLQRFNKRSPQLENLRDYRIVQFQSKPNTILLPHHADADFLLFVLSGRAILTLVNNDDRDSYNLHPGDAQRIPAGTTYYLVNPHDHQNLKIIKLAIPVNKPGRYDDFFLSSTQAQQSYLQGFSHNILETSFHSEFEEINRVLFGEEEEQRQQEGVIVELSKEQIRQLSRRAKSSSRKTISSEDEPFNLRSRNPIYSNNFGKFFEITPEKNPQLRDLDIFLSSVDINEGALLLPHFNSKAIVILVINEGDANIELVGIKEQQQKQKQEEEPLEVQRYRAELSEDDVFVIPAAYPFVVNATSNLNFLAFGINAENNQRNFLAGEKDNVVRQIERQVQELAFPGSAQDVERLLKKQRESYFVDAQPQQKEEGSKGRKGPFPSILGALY
The concentrations of the β-conglycinin were set to 18.75, 37.5, 75, 150, and 300 nmol/L, and the protein concentrations in the soybean samples were set to 1, 3, 10, 30, and 100 ppm. The SPR analysis was performed in the same manner as in Example 1, except that these samples were used. Then, from the results of the above-described SPR analysis, the relative binding value was determined regarding the proteins in each peanut sample bound to the aptamer immobilized on the chip. The relative binding value was calculated as the ratio of the protein binding measured value to the aptamer immobilization measured value (the protein binding measured value/the aptamer immobilization measured value).
Regarding B1, the binding result is reported as “no binding”.

As for B2, the binding result is on record as “no binding”.

Regarding B3, the binding result was “no binding”.

For B4, the binding result was “no binding”.

For the molecule B5, the binding result is given as “no binding”.

The target of the next series is T2, conarachin (undenatured). The experiment in a line: SPR; same SPR buffer. The conditions noted are these: tags: COSMO BIO CSB-CSB-NP003601PL. The protocol:
(§2) First, as a sensor chip designed specifically for the ProteON, a streptavidin-immobilized chip (trade name: ProteOn NLC Sensor Chip, BioRad) was set in the ProteON XPR36. Biotinylated poly(dT) at 5 μmol/L was injected to a flow cell of the sensor chip using ultrapure water (DDW), and the binding was allowed to proceed until the signal intensity (RU: Resonance Unit) reached about 900 RU. The biotinylated poly(dT) was prepared by biotinylating the 5′ end of 24-mer deoxythymidine. Then, the poly(dA)-added aptamer at 1 μmol/L was injected to the flow cell of the chip using an SPR buffer at a flow rate of 25 μL/min for 80 seconds, and the binding was allowed to proceed until the signal intensity reached about 800 RU. […]
(§3) Samples were prepared by adjusting commercially available peanut allergen conarachin (COSMO BIO, CSB-CSB-NP003601PL, Arachis hypogaea seed, Native) to 50 nmol/L, 25 nmol/L, 12.5 nmol/L, 6.25 nmol/L, and 3.125 nmol/L. The conarachin is a undenatured protein, and the conarachin generally accounts for about 17% of the total amount of peanut proteins in a peanut. The SPR analysis was carried out in the same manner as in Example 1, and the kinetic parameter was calculated from the results of the analysis.
B2 registered a Kd of 0.28 nM. This counts as sub-nanomolar.

B3: binding was characterised by a dissociation constant (Kd) of 0.263 nM. The Kd values of the last two molecules are within 1.5-fold of each other.

The next series has as its target T2, conarachin (undenatured). Description: SPR; 40 mM HEPES pH 7.5, 125 mM NaCl, 5 mM KCl, 1 mM MgCl2, 0.05% Tween 20. The conditions noted are these: tags: COSMO BIO CSB-CSB-NP003601PL. The protocol: as §2, §3
Regarding B5, binding was characterised by a dissociation constant (Kd) of 0.259 nM. This counts as sub-nanomolar.

A further series addresses T3, Ara h1 (heat-denatured, purified from …). The description is as above. Particulars: tags: INDOOR biotechnologies NA-AH1-1. The protocol: as §1
Samples were prepared by adjusting commercially available peanut allergen Ara h1 (INDOOR biotechnologies, #NA-AH1-1, Blanched peanut, crushed [Runner cultivar]) to 50 nmol/L, 25 nmol/L, 12.5 nmol/L, and 6.25 nmol/L. The Ara h1, which is purified from parboiled peanuts, is a heat-denatured protein. The SPR analysis was carried out in the same manner as in Example 1, and the kinetic parameter was calculated from the results of the analysis.
Regarding B1, the affinity, expressed as Kd, was 0.173 nM.

On to B3, for which the Kd is 0.19 nM. The Kd values of the last two molecules are within 1.5-fold of each other.

B4 came in with a Kd of 0.141 nM.

In a further series the target is beta-conglycinin (heat-denatured, boiled 10 min) (Glycine max, UniProt P0DO16;P11827;P25974 P0DO16:63-605,P11827:63-621,P25974:24-439). The experiment in a line: SPR; little binding, 18.75-300 nM. Particulars: tags: Sigma C5868-5GM. The procedure: as §1, with “Biotinylated” for “First, as a sensor chip designed specifically for the ProteON, a streptavidin-immobilized chip (trade name: ProteOn NLC Sensor Chip, BioRad) was set in the ProteON XPR36. Biotinylated”
beta-conglycinin (heat-denatured, boiled 10 min), sequence (P0DO16 63-605, chain 1 of 3): as the sequence (P0DO16 63-605, chain 1 of 3) above
beta-conglycinin (heat-denatured, boiled 10 min), sequence (P11827 63-621, chain 2 of 3): as the sequence (P11827 63-621, chain 2 of 3) above
beta-conglycinin (heat-denatured, boiled 10 min), sequence (P25974 24-439, chain 3 of 3): as the sequence (P25974 24-439, chain 3 of 3) above
As soybean allergen samples, undenatured β-conglycinin, heat-denatured β-conglycinin, undenatured soybean proteins, and heat-denatured soybean proteins were provided. A commercially available product (Sigma, trade name β-conglycinin from Glycine max (soybean), C5868-5GM) was used as the undenatured β-conglycinin. The heat-denatured β-conglycinin was prepared by boiling the undenatured β-conglycinin for 10 minutes and then collecting a supernatant fraction. As the undenatured soybean proteins and the heat-denatured soybean proteins, the undenatured soybean sample and the heat-denatured soybean sample in Example 1 were used.
The concentrations of the β-conglycinin were set to 18.75, 37.5, 75, 150, and 300 nmol/L, and the protein concentrations in the soybean samples were set to 1, 3, 10, 30, and 100 ppm. The SPR analysis was performed in the same manner as in Example 1, except that these samples were used. Then, from the results of the above-described SPR analysis, the relative binding value was determined regarding the proteins in each peanut sample bound to the aptamer immobilized on the chip.
On the technique in general: Surface plasmon resonance follows binding to a sensor surface in real time, without labels.
Turning to B1, the binding result is on record as “no binding”.

Consider B2, for which the binding result is listed as “no binding”.

Regarding B3, the binding result is “no binding”.

In the case of B4, the binding result is recorded as “no binding”.

Regarding B5, the binding result is recorded as “no binding”.
